The supplement of paper PMC10126150
± gives the standard deviation of the averaged measurements.

Test system: ATP
Experiment: switch fluorescence ratio, 500 uM ATP over buffer (Cy3 cluster intensity, sum of 5 cycles each) (fold (ratio)); higher = stronger signal-on switching upon ATP binding; sequences stand for … in TCGTCGGCAGCGTCAGATGTGTATAAGAGACAGTTTTTTTTTTTTTTTTTTTTTTTTT…TC
Settings: aptamer strand: ATP DNA aptamer (quencher-CACCTGGGGGAGTATTGCGGAGGAAGG + anchor), 100 nM annealed; ATP concentration: 500 uM
Procedure, shortened: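 Switching-strand clusters labelled with Cy3 on a modified Illumina MiSeq flow-cell were annealed to 100 nM quencher-labelled ATP aptamer, imaged in selection buffer, and re-imaged after 15 min with 500 uM ATP at 22 °C. This was done over five cycles with NaOH stripping and re-annealing in between. The fluorescence ratio is summed target-cycle over summed buffer-cycle Cy3 intensity per cluster, averaged per switch-domain sequence, excluding clusters outside 100-1000 RFU.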
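Also: ATP exposure 15 min at 22 °C before imaging.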

| Sequence | switch fluorescence ratio |
| --- | --- |
| TTTGAGGGGA | 1 ± 0.011 |
| AGGGTCTTGC | 0.998 ± 0.014 |
| TAATTGGATG | 0.992 ± 0.027 |
| AGGTAAATTA | 0.9982 ± 0.0076 |
| ATTAGCTCGC | 0.97 ± 0.023 |
| TAATACGGCG | 1.009 ± 0.01 |
| GTATTTGGAG | 1.0226 ± 0.00041 |
| TCCAGACGGC | 1 ± 0.013 |
| CAGCTAAAGG | 1.02 ± 0.03 |
| TTTAGCATAA | 1.23 ± 0.13 |
| GGGTTTGAAT | 0.978 ± 0.032 |
| GTTTTTCGT | 1 ± 0.062 |
| TCAAGACGCA | 1.068 ± 0.0035 |
| CTGGATTGGG | 0.98 ± 0.028 |
| GAAGCGGATG | 1.01 ± 0.031 |
| CGTGGGTGGT | 1.0181 ± 0.00048 |
| TTACTACGTA | 1.04 ± 0.059 |
| GGTTTGGTTT | 1 ± 0.021 |
| TAACAAGGCA | 0.985 ± 0.013 |
| TTTAATGGGA | 1.03 ± 0.05 |
| AAATGGCACG | 0.973 ± 0.024 |
| GAAGACTACG | 1.04 ± 0.038 |
| TGCGCGAAAT | 0.995 ± 0.0021 |

| Sequence | switch fluorescence ratio |
| --- | --- |
| TACGTGGCTG | 1.05 ± 0.073 |
| GCGGTCCGTT | 0.9614 ± 0.0012 |
| AAAAGTAAAA | 1.03 ± 0.061 |
| CCGAGGGCGC | 1.2 ± 0.031 |
| GCCGATGCTG | 0.978 ± 0.042 |
| TCCGAGTTGG | 1.05 ± 0.023 |
| CGTGCGTGTA | 1.02 ± 0.053 |
| TAAACCTGTG | 1.05 ± 0.088 |
| CGAGGGCCGG | 0.9974 ± 0.0081 |
| GATCTATGTC | 0.989 ± 0.066 |
| AAAGAATAAA | 1.022 ± 0.0089 |
| GTGTGTGGGC | 1.04 ± 0.061 |
| AAGTTAAAA | 1.04 ± 0.092 |
| TGCAACGGGT | 1.02 ± 0.018 |
| TGTAATTGGG | 0.9881 ± 0.0015 |
| GTTTTTGCTT | 1.01 ± 0.032 |
| TCCTTGATCC | 1.02 ± 0.089 |
| TCAACGTGCT | 1 ± 0.037 |
| CATGCGGGGG | 1.01 ± 0.013 |
| AAGTTTTTTT | 1 ± 0.025 |
| ATCTGGCTCG | 0.988 ± 0.016 |
| TTATTTTTGG | 0.989 ± 0.027 |
| GAGGTTGGGA | 1.01 ± 0.012 |

| Sequence | switch fluorescence ratio |
| --- | --- |
| TGTAGGGGGA | 0.999 ± 0.052 |
| TTGGTGGCGG | 0.978 ± 0.028 |
| AGAGTTTTCT | 0.9916 ± 0.0094 |
| GTTCAGATTG | 1.03 ± 0.0048 |
| TTGGGTTAAG | 0.983 ± 0.015 |
| GGTTTAAAAA | 0.969 ± 0.036 |
| ACATATTGTG | 1.03 ± 0.062 |
| TCTTGATCTG | 1.016 ± 0.0021 |
| TATTTTACCA | 1.017 ± 0.0061 |
| GTAGATTGG | 0.9872 ± 0.0035 |
| GTCGTCTTTT | 1.01 ± 0.012 |
| TGATGGGGCT | 0.975 ± 0.038 |
| CCAGGTATTT | 1.1 ± 0.016 |
| CGGAGGGGAG | 0.977 ± 0.011 |
| ATTCCTTTTT | 0.9996 ± 0.0094 |
| ATAAGTGTTA | 0.9898 ± 0.0031 |
| GTCAGGGGGA | 1.07 ± 0.14 |
| TTACTGAACT | 1.19 ± 0.025 |
| AGGGTTATCG | 1.02 ± 0.018 |
| TGGATGAATT | 0.9981 ± 0.0045 |
| TGGTTGAGGT | 0.963 ± 0.028 |
| TTGGAAAGTT | 1.01 ± 0.028 |
| ACCAATAGGA | 1.01 ± 0.021 |

| Sequence | switch fluorescence ratio |
| --- | --- |
| CGTAGATAGC | 1.07 ± 0.02 |
| TCAGGGCGTG | 1 ± 0.026 |
| CGGTATAACG | 0.997 ± 0.043 |
| GATGAGTGTG | 0.964 ± 0.041 |
| TTGGCCGCAC | 2.67 ± 0.049 |
| TCGGGTATTC | 1.06 ± 0.14 |
| GCCTTAGGTG | 1.4 ± 0.12 |
| GGGGAGGAGG | 0.986 ± 0.0087 |
| AATTAGGGGG | 0.981 ± 0.064 |
| AAGTATGGGA | 1.02 ± 0.028 |
| AGAGATGTGG | 0.958 ± 0.036 |
| GGGGTAGGCA | 0.9742 ± 0.0033 |
| ACTTATAATT | 1.02 ± 0.027 |
| TACCAAGGGA | 0.991 ± 0.00097 |
| CTTTTCGGCT | 1.04 ± 0.028 |
| TGGATCACTT | 1.01 ± 0.028 |
| ATGTTAGGGG | 0.981 ± 0.041 |
| TTAGGTCTTC | 1.02 ± 0.014 |
| GGTGCGGTCG | 0.9824 ± 0.0053 |
| TTAAAAAGAT | 1.04 ± 0.051 |
| GGCCTCGTAC | 1.1 ± 0.02 |
| AATTAGCAAG | 1.04 ± 0.018 |
| TGTGGGGTTG | 0.994 ± 0.033 |

| Sequence | switch fluorescence ratio |
| --- | --- |
| CAACATGATG | 0.995 ± 0.013 |
| TTCATTATTT | 1 ± 0.024 |
| CTGACGGTAG | 1.03 ± 0.022 |
| ACGAGGATTG | 1.042 ± 0.0021 |
| ATTTGGATCT | 0.9725 ± 0.0068 |
| ATGGGCTGGG | 0.997 ± 0.035 |
| GCGCAGGTAA | 1.04 ± 0.013 |
| TATTAGGCAT | 1.15 ± 0.23 |
| TTTTAGTGCT | 1.006 ± 0.0065 |
| TAGATTTT | 0.9953 ± 0.007 |
| CCGGGGGCTC | 1.87 ± 0.97 |
| TTTGCGGCGT | 0.986 ± 0.022 |
| TTTAGTTCCG | 0.935 ± 0.025 |
| CTAATCGGTT | 0.97 ± 0.029 |
| TTTTCCGCTT | 1.55 ± 0.69 |
| TGTTATAATT | 1 ± 0.0048 |
| GGGGTAGATA | 1.01 ± 0.012 |
| TTCTGCCCC | 1.01 ± 0.033 |
| TTTCAGAGTT | 0.993 ± 0.033 |
| GGGGGAGGTT | 0.977 ± 0.029 |
| ATCGTTGCGG | 1.1 ± 0.099 |
| TAATATTTTT | 1 ± 0.017 |
| TTGGAAAAAT | 1.05 ± 0.071 |

| Sequence | switch fluorescence ratio |
| --- | --- |
| ATAAGTCACG | 1.06 ± 0.028 |
| GCCTGGTGTC | 1.27 ± 0.055 |
| TTTTCATTCA | 1.023 ± 0.0072 |
| TTTGGGGAAA | 1.16 ± 0.42 |
| TTTTTTGTGT | 0.991 ± 0.03 |
| ATACCTGAG | 1.53 ± 0.057 |
| GCGGTCAAAT | 1.005 ± 0.0018 |
| TAGAGGGAGG | 0.967 ± 0.014 |
| GTTTTGGGCC | 1.02 ± 0.05 |
| AAATTTATTA | 1.03 ± 0.037 |
| TGGGGGAGGG | 1 ± 0.054 |
| CTTATAGTAG | 0.9847 ± 0.0066 |
| TTGCGACCTG | 1.05 ± 0.04 |
| ATATGCGAAC | 1.1 ± 0.035 |
| TCAATATTGG | 1.008 ± 0.0098 |
| CTTAAATGTA | 0.982 ± 0.021 |
| AGAGTATGAA | 1 ± 0.032 |
| AAAATGGATT | 0.995 ± 0.055 |
| AAAGGGGACA | 1.02 ± 0.054 |
| ATTTCGATTA | 0.9965 ± 0.0067 |
| TCGTTATGTA | 0.992 ± 0.018 |
| ATGTGAAAGA | 0.982 ± 0.011 |
| AAGGGGGGCT | 0.996 ± 0.03 |

| Sequence | switch fluorescence ratio |
| --- | --- |
| CCCGCATGAT | 5.66 ± 0.2 |
| GGCCGGGGGG | 1.02 ± 0.058 |
| TTTCGCATTT | 1.14 ± 0.013 |
| GATGATTTTG | 0.979 ± 0.047 |
| TACGAGCCGC | 0.989 ± 0.057 |
| CAGTAAAAAG | 1.03 ± 0.025 |
| GGCCGGGGGT | 1.25 ± 0.4 |
| GTTAATTTAG | 0.987 ± 0.01 |
| TTACGGCTGC | 1.03 ± 0.058 |
| CAGAGATTAG | 0.996 ± 0.043 |
| AAAATTGGGG | 1.02 ± 0.039 |
| TTAAAGCAGT | 1.56 ± 0.47 |
| GTGATATGGA | 0.992 ± 0.014 |
| TTTGTTAAGT | 1.01 ± 0.05 |
| TTTTAGTACA | 1 ± 0.048 |
| GATAGATGGC | 0.989 ± 0.039 |
| GATACTGTAG | 1.09 ± 0.049 |
| GGTGCTGGTG | 1.05 ± 0.025 |
| GAATTGTGGG | 0.989 ± 0.039 |
